Results: patent US20060239990

B1: mouse PRMT2 (untagged; endogenous in NIH3T3 cells, MEFs, GT1-7 cells and VSMC, or expressed from mouse PRMT2 cDNA in HEK293 cells) (protein)
chain: MEAPGEGPCSESQVIPVLEEDPVDYGCEMQLLQDGAQLQLQLQPEEFVAIADYTATDETQLSFLRGEKILILRQTTADWWWGERAGCCGYIPANHLGKQLEEYDPEDTWQDEEYFDSYGTLKLHLEMLADQPRTTKYHSVILQNKESLKDKVILDVGCGTGIISLFCAHHARPKAVYAVEASDMAQHTSQLVLQNGFADTITVFQQKVEDVVLPEKVDVLVSEWMGTCLLFEFMIESILYARDTWLKGDGIIWPTTAALHLVPCSAEKDYHSKVLFWDNAYEFNLSALKSLAIKEFFSRPKSNHILKPEDCLSEPCTILQLDMRTVQVPDLETMRGELRFDIQKAGTLHGFTAWFSVYFQSLEEGQPQQVVSTGPLHPTTHWKQTLFMMDDPVPVHTGDVVHGFCCVTKKSGMEKAHVCLSELGCHVRTRSHVSTELETGSFRSGGDS
B2: mouse PRMT2-Flag (FLAG-tagged full-length PRMT-2) (protein)
chain: B1 chain

Experiments:
[1] = target: mouse STAT3 (endogenous in GT1-7 cells and VSMC, or expressed from mouse STAT3 pcDNA3 in HEK293 cells), P42227
Sequence of mouse STAT3 (endogenous in GT1-7 cells and VSMC, or expressed from mouse STAT3 pcDNA3 in HEK293 cells), P42227 (P42227 2-770): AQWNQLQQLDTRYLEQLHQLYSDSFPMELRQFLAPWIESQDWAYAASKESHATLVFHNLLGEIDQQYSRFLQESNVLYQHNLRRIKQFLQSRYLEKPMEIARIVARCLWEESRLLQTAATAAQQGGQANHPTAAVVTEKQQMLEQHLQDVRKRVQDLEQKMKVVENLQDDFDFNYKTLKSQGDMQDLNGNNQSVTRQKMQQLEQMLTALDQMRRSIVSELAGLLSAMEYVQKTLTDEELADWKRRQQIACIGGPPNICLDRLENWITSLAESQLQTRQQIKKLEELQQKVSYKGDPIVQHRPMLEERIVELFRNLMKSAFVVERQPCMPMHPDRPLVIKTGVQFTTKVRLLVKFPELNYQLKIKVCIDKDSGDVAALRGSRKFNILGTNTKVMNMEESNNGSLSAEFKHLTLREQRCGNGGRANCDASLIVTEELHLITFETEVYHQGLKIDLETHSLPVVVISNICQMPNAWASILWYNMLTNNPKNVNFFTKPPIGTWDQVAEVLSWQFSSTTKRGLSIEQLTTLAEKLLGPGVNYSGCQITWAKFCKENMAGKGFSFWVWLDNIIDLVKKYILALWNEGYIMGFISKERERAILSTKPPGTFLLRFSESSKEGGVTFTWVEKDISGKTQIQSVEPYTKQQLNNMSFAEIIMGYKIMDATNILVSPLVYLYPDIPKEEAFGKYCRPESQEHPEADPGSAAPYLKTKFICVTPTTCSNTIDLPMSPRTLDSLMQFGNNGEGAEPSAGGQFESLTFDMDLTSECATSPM

[2] = target: GST-Stat3 Arg31→Ala31 [GST: P08515]
Sequence of GST-Stat3 Arg31→Ala31 [GST: P08515] (P08515 whole entry, looked up, the tested form may be a part): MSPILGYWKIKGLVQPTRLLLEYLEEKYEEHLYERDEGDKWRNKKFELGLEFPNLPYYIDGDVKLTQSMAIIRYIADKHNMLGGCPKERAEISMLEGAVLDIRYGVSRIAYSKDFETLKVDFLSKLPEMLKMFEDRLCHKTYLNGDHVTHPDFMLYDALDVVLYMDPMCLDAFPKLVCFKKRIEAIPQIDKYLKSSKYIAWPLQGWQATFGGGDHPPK

[3] = target: GST-Stat3 fusion protein, P42227
Sequence of GST-Stat3 fusion protein, P42227 (P42227 whole entry, the tested form may be a part): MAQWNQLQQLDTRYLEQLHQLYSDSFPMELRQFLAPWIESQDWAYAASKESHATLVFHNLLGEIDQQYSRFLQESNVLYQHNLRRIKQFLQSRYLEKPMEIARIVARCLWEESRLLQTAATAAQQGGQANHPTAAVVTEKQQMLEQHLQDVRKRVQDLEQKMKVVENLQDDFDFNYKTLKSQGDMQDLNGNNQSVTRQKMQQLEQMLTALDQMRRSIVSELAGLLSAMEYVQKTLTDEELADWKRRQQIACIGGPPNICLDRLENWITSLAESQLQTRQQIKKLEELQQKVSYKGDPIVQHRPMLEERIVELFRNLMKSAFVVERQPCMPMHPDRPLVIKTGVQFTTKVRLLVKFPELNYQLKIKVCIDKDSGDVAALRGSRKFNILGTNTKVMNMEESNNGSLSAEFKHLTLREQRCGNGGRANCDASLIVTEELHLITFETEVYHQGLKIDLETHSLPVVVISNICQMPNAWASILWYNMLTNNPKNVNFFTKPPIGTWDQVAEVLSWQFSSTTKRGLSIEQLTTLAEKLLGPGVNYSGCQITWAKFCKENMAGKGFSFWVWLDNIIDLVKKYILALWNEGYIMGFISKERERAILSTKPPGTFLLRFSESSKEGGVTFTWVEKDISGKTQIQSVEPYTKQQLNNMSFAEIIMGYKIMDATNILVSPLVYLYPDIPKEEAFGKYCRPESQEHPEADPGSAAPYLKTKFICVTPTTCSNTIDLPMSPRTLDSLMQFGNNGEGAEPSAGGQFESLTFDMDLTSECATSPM

| Protein | leptin-induced Stat3 methylation in VSMC (anti-Stat3 immunoprecipitation, immunoblot with α-metR antibody) [1] | in vitro methylation with [3H]-AdoMet, MEF extracts as the enzyme source [2] | in vitro methylation with [3H]-AdoMet, MEF extracts as the enzyme source [3] | in vitro methylation with [3H]-AdoMet [3] |
| --- | --- | --- | --- | --- |
| B1 | leptin (100 nM) evoked a transient methylation of Stat3 at 10 min in wild-type VSMC (FIG. 22D, lane 2-5), whereas increased Stat3 methylation was not observed in PRMT2^-/- cells (FIG. 22D, lane 6-9) | This mutation resulted in substantially no methylation of Stat3 (FIG. 20B, lane 3) | Cell extracts from wild-type MEFs were also capable of methylating GST-Stat3, whereas cell extracts from PRMT2^-/- cells abolished Stat3 methylation (FIG. 20B, lanes 2 and 4) | – |
| B2 | – | – | – | Flag fusion protein from the cells transfected wild-type PRMT2-Flag cDNA could methylate GST-Stat3 |
